From publication PMC314469, “Protein Interaction Networks by Proteome Peptide Scanning” (PLoS Biology, 2004)
Each block holds one binder with its values, some of them ahead of it.

How the values were obtained:
Assay in all cases: SPOT array
[1] = target: T1, Myo5 SH3 (MYO5_YEAST), Q04439
T1 chain: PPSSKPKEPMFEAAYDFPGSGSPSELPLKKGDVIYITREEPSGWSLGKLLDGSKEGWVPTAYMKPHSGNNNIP

[2] = target: T2, Yfr024 SH3 (LSB3_YEAST), P43603
T2 chain: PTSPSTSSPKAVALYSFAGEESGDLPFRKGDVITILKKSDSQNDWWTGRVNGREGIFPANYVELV

[3] = target: T3, Boi1 SH3 (BOI1_YEAST), P38041
T3 chain: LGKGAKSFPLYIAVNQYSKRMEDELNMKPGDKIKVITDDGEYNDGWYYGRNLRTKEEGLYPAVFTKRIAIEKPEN

[4] = target: T4, Boi2 SH3 (BOI2_YEAST), P39969
T4 chain: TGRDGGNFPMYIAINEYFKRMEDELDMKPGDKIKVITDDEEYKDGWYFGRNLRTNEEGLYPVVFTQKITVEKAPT

[5] = target: T5, Rvs167 SH3 (RV167_YEAST), P39743
T5 chain: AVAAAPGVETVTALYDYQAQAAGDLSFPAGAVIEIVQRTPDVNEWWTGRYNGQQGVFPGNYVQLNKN

[6] = target: T6, Yhr016c SH3 (YSC84_YEAST), P32793
T6 chain: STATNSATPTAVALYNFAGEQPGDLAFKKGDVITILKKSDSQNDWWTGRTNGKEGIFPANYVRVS

normalised SPOT signal, Boehringer light units (BLU); mean over the file's lines of this peptide [1]: 145
B1: YPL012W 957-970 (peptide)
chain: LPEELMRPKVPELL

normalised SPOT signal, Boehringer light units (BLU); mean over the file's lines of this peptide [1]: 109
B2: YNL204C 272-285 (peptide)
chain: NEKLHETPHLPSPV

normalised SPOT signal, Boehringer light units (BLU); mean over the file's lines of this peptide [1]: 152
B3: YOR151C 792-805 (peptide)
chain: MANILYYPQKPLGT

normalised SPOT signal, Boehringer light units (BLU); mean over the file's lines of this peptide [1]: 125
B4: YCL040W 391-404 (peptide)
chain: LLQSLRLPTTPTER

normalised SPOT signal, Boehringer light units (BLU); mean over the file's lines of this peptide [1]: 255
B5: YHR117W 470-483 (peptide)
chain: NETKLKFPTLPEVP

normalised SPOT signal, Boehringer light units (BLU); mean over the file's lines of this peptide [1]: 185
B6: YFR019W 1841-1854 (peptide)
chain: LWKPLVYPTSPSEH

normalised SPOT signal, Boehringer light units (BLU); mean over the file's lines of this peptide [1]: 198
B7: YKR021W 416-429 (peptide)
chain: LLAEHNGPKLPHIP

normalised SPOT signal, Boehringer light units (BLU); mean over the file's lines of this peptide [1]: 226
B8: YIR010W 139-152 (peptide)
chain: NASAMPAPYMPYYY

normalised SPOT signal, Boehringer light units (BLU); mean over the file's lines of this peptide [1]: 143
B9: YBR172C 710-723 (peptide)
chain: LELLLSLPTGPESK

normalised SPOT signal, Boehringer light units (BLU); mean over the file's lines of this peptide [1]: 145
B10: YNL238W 106-119 (peptide)
chain: LFKRLPVPAPPMDS

normalised SPOT signal, Boehringer light units (BLU); mean over the file's lines of this peptide [1]: 126
B11: YPL087W 1-14 (peptide)
chain: MLFSWPYPEAPIEG

normalised SPOT signal, Boehringer light units (BLU); mean over the file's lines of this peptide [1]: 87.2
B12: YGR032W 156-169 (peptide)
chain: NAIEMALPNDPYPA

normalised SPOT signal, Boehringer light units (BLU); mean over the file's lines of this peptide [1]: 96.8
B13: YLR342W 137-150 (peptide)
chain: NAIAMALPNEPYPA

normalised SPOT signal, Boehringer light units (BLU); mean over the file's lines of this peptide [1]: 6470
B14: YKL147C 80-93 (peptide)
chain: LLLPLLLPPLPSVK

normalised SPOT signal, Boehringer light units (BLU); mean over the file's lines of this peptide [1]: 172
B15: YPR112C 91-104 (peptide)
chain: MAKSFADPRVPQPM

normalised SPOT signal, Boehringer light units (BLU); mean over the file's lines of this peptide [1]: 45.3
B16: YGL035C 132-145 (peptide)
chain: LPQQHLSPLIPIAI

normalised SPOT signal, Boehringer light units (BLU); mean over the file's lines of this peptide [1]: 79.7
B17: YDR405W 164-177 (peptide)
chain: MEEPFIWPEEPRPD

normalised SPOT signal, Boehringer light units (BLU); mean over the file's lines of this peptide [1]: 162
B18: YOR207C 724-737 (peptide)
chain: LLYLMTYPQQPMVK

normalised SPOT signal, Boehringer light units (BLU); mean over the file's lines of this peptide [1]: 134
B19: YER064C 198-211 (peptide)
chain: NASLLRDPSAPYAH

normalised SPOT signal, Boehringer light units (BLU); mean over the file's lines of this peptide [1]: 191
B20: YDR416W 508-521 (peptide)
chain: LEDALHVPTNPEIL

normalised SPOT signal, Boehringer light units (BLU); mean over the file's lines of this peptide [1]: 103
B21: YLR069C 734-747 (peptide)
chain: LEFSHYAPTAPHVQ

normalised SPOT signal, Boehringer light units (BLU); mean over the file's lines of this peptide [1]: 43400
B22: YOR181W 341-353 (peptide)
chain: LPAPPPPPRRGPA

normalised SPOT signal, Boehringer light units (BLU); mean over the file's lines of this peptide [1]: 344
B23: YPR183W 188-201 (peptide)
chain: LLAKLPLPRDPRVA

normalised SPOT signal, Boehringer light units (BLU); mean over the file's lines of this peptide [1]: 111
B24: YLR006C 162-175 (peptide)
chain: NEAPMLSPQRPYST

normalised SPOT signal, Boehringer light units (BLU); mean over the file's lines of this peptide [1]: 161
B25: YNL206C 125-138 (peptide)
chain: MASFLPVPEKPNLI

normalised SPOT signal, Boehringer light units (BLU); mean over the file's lines of this peptide [1]: 288
B26: YHL028W 522-535 (peptide)
chain: LASPFHDPILPRRT

normalised SPOT signal, Boehringer light units (BLU); mean over the file's lines of this peptide [1]: 268
B27: YHR197W 602-615 (peptide)
chain: MFELLSHPKVPVGM

normalised SPOT signal, Boehringer light units (BLU); mean over the file's lines of this peptide [1]: 204
B28: YLR291C 121-134 (peptide)
chain: MFNLLQKPEQPHQN

normalised SPOT signal, Boehringer light units (BLU); mean over the file's lines of this peptide [1]: 344
B29: YOR290C 25-38 (peptide)
chain: NEHGMNAPSVPEFI

normalised SPOT signal, Boehringer light units (BLU); mean over the file's lines of this peptide [1]: 169
B30: YMR104C 608-621 (peptide)
chain: LLKGYIPPYKPIVK

normalised SPOT signal, Boehringer light units (BLU); mean over the file's lines of this peptide [1]: 165
B31: YLL016W 406-419 (peptide)
chain: LPTGYYEPMKPSSL

normalised SPOT signal, Boehringer light units (BLU); mean over the file's lines of this peptide [1]: 172
B32: YDL033C 241-254 (peptide)
chain: NFLKHYLPSSPGDI

normalised SPOT signal, Boehringer light units (BLU); mean over the file's lines of this peptide [1]: 199
B33: YER014W 436-449 (peptide)
chain: MLNEHGVPVVPSRE

normalised SPOT signal, Boehringer light units (BLU); mean over the file's lines of this peptide [1]: 253
B34: YPL058C 1310-1323 (peptide)
chain: LWILYMSPDVPSAS

normalised SPOT signal, Boehringer light units (BLU); mean over the file's lines of this peptide [1]: 97.4
B35: YDL223C 906-919 (peptide)
chain: NFPSLIDPHVPTYG

normalised SPOT signal, Boehringer light units (BLU); mean over the file's lines of this peptide [1]: 414
B36: YER155C 650-663 (peptide)
chain: LLISHLFPTNPEFS

normalised SPOT signal, Boehringer light units (BLU); mean over the file's lines of this peptide [1]: 126
B37: YCL055W 320-333 (peptide)
chain: NEIELLRPRSPVQK

normalised SPOT signal, Boehringer light units (BLU); mean over the file's lines of this peptide [2]: 13500
normalised SPOT signal, Boehringer light units (BLU); mean over the file's lines of this peptide [3]: 256
normalised SPOT signal, Boehringer light units (BLU); mean over the file's lines of this peptide [4]: 41.1
normalised SPOT signal, Boehringer light units (BLU); mean over the file's lines of this peptide [1]: 967
normalised SPOT signal, Boehringer light units (BLU); mean over the file's lines of this peptide [5]: 599
normalised SPOT signal, Boehringer light units (BLU); mean over the file's lines of this peptide [6]: 1830
B38: YDR448W 142-155 (peptide)
chain: RERPLEPPRKPMAS

normalised SPOT signal, Boehringer light units (BLU); mean over the file's lines of this peptide [1]: 20400
B39: YHR165C 44-57 (peptide)
chain: NEDTFLPPPPPPPS

normalised SPOT signal, Boehringer light units (BLU); mean over the file's lines of this peptide [1]: 257
B40: YML068W 248-261 (peptide)
chain: MLKALFTPLIPVSF

normalised SPOT signal, Boehringer light units (BLU); mean over the file's lines of this peptide [1]: 241
B41: YLR203C 42-55 (peptide)
chain: NALGLDPPPSPEDP

normalised SPOT signal, Boehringer light units (BLU); mean over the file's lines of this peptide [1]: 115
B42: YCL051W 199-212 (peptide)
chain: LPTALLSPLRPSLS

normalised SPOT signal, Boehringer light units (BLU); mean over the file's lines of this peptide [1]: 455
B43: YGR065C 182-195 (peptide)
chain: LPFMYLLPRFPSHI

normalised SPOT signal, Boehringer light units (BLU); mean over the file's lines of this peptide [1]: 202
B44: YBR031W 22-35 (peptide)
chain: LPAVFSAPIRPDIV

normalised SPOT signal, Boehringer light units (BLU); mean over the file's lines of this peptide [1]: 156
B45: YNL223W 328-341 (peptide)
chain: NEFLHFDPHIPQPA

normalised SPOT signal, Boehringer light units (BLU); mean over the file's lines of this peptide [1]: 239
B46: YPL063W 167-180 (peptide)
chain: MFTYFQEPPFPDLL

normalised SPOT signal, Boehringer light units (BLU); mean over the file's lines of this peptide [1]: 170
B47: YGR094W 895-908 (peptide)
chain: NALKLIHPFMPFIS

normalised SPOT signal, Boehringer light units (BLU); mean over the file's lines of this peptide [1]: 223
B48: YJR106W 230-243 (peptide)
chain: MASGLLPPIQPGFD

normalised SPOT signal, Boehringer light units (BLU); mean over the file's lines of this peptide [1]: 80.1
B49: YJL115W 157-170 (peptide)
chain: NEGDLYPPEQPGVD
